From patent publication US20170210813A1 (Regeneron, published 2017) come the findings set out here.

The term Kd denotes the concentration at which binding is half-saturated. The low end stands for higher affinity, the high end for lower affinity. By koff is commonly meant the rate constant with which the complex falls apart. The low end stands for a long-lived complex, the high end for a short-lived complex. The kon is the second-order rate constant of association. A high value points to faster complex formation. Usually IC50 stands for the concentration needed to halve the response being measured. A low value points to higher potency.

Test [1] concerns the target full length human PDGFR-beta on HEK293 cells (human, UniProt P09619 33-1106). The test can be described thus: cell-based or functional assay.
The target of test [2] is T1, hPDGFRb.mmh (human, UniProt P09619 33-531).
T1 construct: Soluble monomeric construct; also called soluble human PDGFR-beta.mmh
In words: SPR, mAb captured, 25 C. On the procedure: (§1) Antibodies, expressed as either mouse Fc (prefix H1M; H2M) or human Fc (prefix H4H), were captured on their respective anti-Fc sensor surfaces (Mab capture format). […] Kinetic association (kₐ) and dissociation (kd) rate constants were determined by processing and fitting the data to a 1:1 binding model using Scrubber 2.0 curve fitting software.
(In general: In SPR one partner is held on a chip, and binding of the other changes the refractive index at the surface.)

Test [3] deals with T2, Macaca fascicularis PDGFRb.mmh (Macaca fascicularis).
T2 construct: Soluble monomeric construct; also called mfPDGFRb.mmh
T2 chain: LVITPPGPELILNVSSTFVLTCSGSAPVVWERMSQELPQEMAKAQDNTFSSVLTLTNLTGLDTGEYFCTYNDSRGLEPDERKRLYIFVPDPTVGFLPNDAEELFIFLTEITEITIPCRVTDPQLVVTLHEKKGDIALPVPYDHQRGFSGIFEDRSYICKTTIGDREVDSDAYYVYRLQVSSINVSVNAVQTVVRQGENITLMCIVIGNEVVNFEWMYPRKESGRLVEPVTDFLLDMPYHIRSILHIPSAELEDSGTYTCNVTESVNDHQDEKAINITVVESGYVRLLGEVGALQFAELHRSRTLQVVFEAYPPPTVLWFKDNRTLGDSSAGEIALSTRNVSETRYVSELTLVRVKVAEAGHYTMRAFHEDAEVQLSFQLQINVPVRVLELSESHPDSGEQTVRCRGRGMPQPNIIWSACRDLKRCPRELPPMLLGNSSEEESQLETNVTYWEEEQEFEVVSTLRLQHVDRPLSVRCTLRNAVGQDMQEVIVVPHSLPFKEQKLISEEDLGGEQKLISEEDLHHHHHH
The test can be described thus: SPR, mAb captured, 25 C. Here is the method:
as §1

In test [4] the target is T3, human PDGFRb.hFc (human).
T3 construct: Soluble dimeric construct with human Fc; also called hPDGFRb.hFc
In words: SPR, mAb captured, 25 C. Here is the method: as §1

In test [5] the target is T1, hPDGFRb.mmh. In words: SPR, mAb captured, 37 C. Here is the method: as §1
Target sequence in this assay (P09619 other isoform, or with tags, fused parts or gaps): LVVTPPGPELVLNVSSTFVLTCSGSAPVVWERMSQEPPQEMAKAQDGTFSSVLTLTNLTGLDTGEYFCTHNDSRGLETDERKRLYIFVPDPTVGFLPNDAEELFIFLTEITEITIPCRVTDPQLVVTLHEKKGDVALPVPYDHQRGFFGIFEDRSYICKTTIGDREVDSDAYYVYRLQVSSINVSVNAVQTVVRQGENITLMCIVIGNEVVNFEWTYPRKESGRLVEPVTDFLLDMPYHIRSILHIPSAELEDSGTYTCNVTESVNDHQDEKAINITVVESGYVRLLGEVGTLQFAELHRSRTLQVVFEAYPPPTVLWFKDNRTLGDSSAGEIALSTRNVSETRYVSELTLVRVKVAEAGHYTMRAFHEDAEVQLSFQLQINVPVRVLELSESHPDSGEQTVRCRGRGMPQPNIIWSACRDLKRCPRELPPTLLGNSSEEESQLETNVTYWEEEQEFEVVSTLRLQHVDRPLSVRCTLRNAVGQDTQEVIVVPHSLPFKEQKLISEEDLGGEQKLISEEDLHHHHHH
The target in test [6] is T2, Macaca fascicularis PDGFRb.mmh. The test can be described thus: SPR, mAb captured, 37 C. Here is the method: as §1
Test [7] addresses T3, human PDGFRb.hFc. The test can be described thus: SPR, mAb captured, 37 C. Here is the method: as §1
Test [8] deals with T1, hPDGFRb.mmh. The test can be described thus: blocking ELISA, biot-hPDGFRb.mmh to coated PDGF-BB. On the procedure:
The equilibrated PDGFR-beta/antibody solutions were added to ligand-coated plates, allowed to incubate for 1 hr, and washed. Levels of bound biot-hPDGFR-beta.mmh were detected using HRP conjugated streptavidin. Data were analyzed using Prism software and IC₅₀ values were calculated as the amount of antibody required to achieve 50% reduction of hPDGFR-beta-mmh bound to ligand. Maximum blocking values were also calculated and reflect the ability of the antibody to block relative to baseline. The absorbance measured at the constant amount of 250 pM biot-hPDGFR-beta-mmh on the dose curve is defined as 0% blocking and the absorbance with no added PDGFR-beta is defined as 100%. The absorbance of the wells containing the highest antibody concentration determined the maximum blocking percent.
Target sequence in this assay (P09619 other isoform, or with tags, fused parts or gaps): as above
(ELISA stands for enzyme-linked immunosorbent assay.)

Sequence of full length human PDGFR-beta on HEK293 cells (P09619 33-1106 limits assumed): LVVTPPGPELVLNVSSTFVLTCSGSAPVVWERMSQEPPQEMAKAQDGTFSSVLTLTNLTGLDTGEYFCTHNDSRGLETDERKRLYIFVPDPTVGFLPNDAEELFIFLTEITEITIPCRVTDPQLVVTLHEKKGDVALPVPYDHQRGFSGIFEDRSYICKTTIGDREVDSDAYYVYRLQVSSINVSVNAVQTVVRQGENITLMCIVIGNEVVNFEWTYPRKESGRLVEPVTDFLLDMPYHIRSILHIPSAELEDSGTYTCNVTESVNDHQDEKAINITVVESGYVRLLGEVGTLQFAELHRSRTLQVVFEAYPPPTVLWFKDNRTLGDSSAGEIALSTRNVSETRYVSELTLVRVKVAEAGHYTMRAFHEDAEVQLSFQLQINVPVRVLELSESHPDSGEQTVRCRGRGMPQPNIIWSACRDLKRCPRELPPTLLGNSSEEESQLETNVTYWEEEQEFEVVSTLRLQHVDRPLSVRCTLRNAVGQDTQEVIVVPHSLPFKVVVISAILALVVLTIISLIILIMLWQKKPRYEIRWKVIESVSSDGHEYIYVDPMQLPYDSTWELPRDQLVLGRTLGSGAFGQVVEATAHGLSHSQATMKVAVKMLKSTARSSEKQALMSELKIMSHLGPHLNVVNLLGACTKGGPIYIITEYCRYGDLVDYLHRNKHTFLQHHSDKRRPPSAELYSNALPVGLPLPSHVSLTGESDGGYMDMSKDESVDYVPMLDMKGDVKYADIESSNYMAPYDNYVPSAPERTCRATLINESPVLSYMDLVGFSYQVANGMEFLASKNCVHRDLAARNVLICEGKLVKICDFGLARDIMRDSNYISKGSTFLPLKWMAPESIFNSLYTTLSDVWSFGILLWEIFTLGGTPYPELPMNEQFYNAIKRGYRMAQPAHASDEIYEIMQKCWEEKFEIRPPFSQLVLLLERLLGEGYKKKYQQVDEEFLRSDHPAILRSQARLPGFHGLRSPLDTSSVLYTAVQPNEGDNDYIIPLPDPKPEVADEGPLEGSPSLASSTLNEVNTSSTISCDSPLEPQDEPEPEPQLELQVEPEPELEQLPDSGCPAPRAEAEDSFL

B1: H4H3102S (antibody, human IgG4, V domains shown)
VH: EVQLVESGGDLVHPGRSLRLSCVASGFTFDDYTMHWVRQAPGKGLEWVSAISWNGDNINYAGSVKGRFTISRDNAKNSLYLEMNSLRVEDTAFYYCAKGRGFSFGFNYLGQGTMVTVSS
VL: AIRMTQSPSSLSASVGDRVTITCRASQDISNYLAWFQQQPGKAPKSLIYATSSLNSGVPSKFSGSGSGTDFTLTISSLQPEDFATYYCQQYKSYPLTFGGGTKVEIK
notes: human IgG4 Fc (H4H prefix)
As for B1, the “IC50, blocking PDGF-BB (250 pM) activation, SRE-luciferase” value (from here on “IC50, blocking PDGF-BB”) in test [1] is 4.1e-09 M. In test [1], the “IC50, blocking PDGF-DD (400 pM) activation, SRE-luciferase” value (from here on “IC50, blocking PDGF-DD”) stood at 4.4e-09 M. The Kd in the test with hPDGFRb.mmh [2] was 0.89 nM; in test [3] it was 1.73 nM; with human PDGFRb.hFc [4], 0.39 nM; with hPDGFRb.mmh [5] it was 1.42 nM; in test [6], 2.86 nM; with human PDGFRb.hFc [7], 0.76 nM. In addition, the koff worked out at 0.000455 s⁻¹ with hPDGFRb.mmh [2]; 0.000489 s⁻¹ in test [3]; 0.000118 s⁻¹ with human PDGFRb.hFc [4]; 0.00147 s⁻¹ with hPDGFRb.mmh [5]; 0.00164 s⁻¹ in test [6]; 0.000319 s⁻¹ with human PDGFRb.hFc [7]. Also, the kon was 509000 M⁻¹ s⁻¹ with hPDGFRb.mmh [2]; 283000 M⁻¹ s⁻¹ in test [3]; 300000 M⁻¹ s⁻¹ in the test with human PDGFRb.hFc [4]; 1.04e+06 M⁻¹ s⁻¹ with hPDGFRb.mmh [5]; 574000 M⁻¹ s⁻¹ in test [6]; 420000 M⁻¹ s⁻¹ with human PDGFRb.hFc [7]. In addition, the t1/2 worked out at 25 min with hPDGFRb.mmh [2]; 24 min in test [3]; 98 min with human PDGFRb.hFc [4]; 8 min with hPDGFRb.mmh [5]; 7 min in test [6]; 36 min in the test with human PDGFRb.hFc [7]. Further, in the test with hPDGFRb.mmh [8], the “% Maximum Blocking” value was found to be 30%.

B2: H4H3097S (antibody, human IgG4, V domains shown)
VH: QVQLVESGAEMKKPGASVKVSCKASGYTFTDYGINWVRQAPGQGLEWMGWVSGYNGNTVFAQKIQGRVTMTTDTSTSTAYMELRSLRSDDTAVYFCARISVRGHSYYHGMGVWGQGTTVTVSS
VL: AIRMTQSPSSLSASVGDRVTITCRASQDINSYLAWFQQKPGKAPKSLIYTASSLQSGVPSKFSGSGSGTDFTLTISSLQPEDFATYYCQQYNTYPYTFGQGTKVESK
notes: human IgG4 Fc (H4H prefix)
With B2, the binding result (with hPDGFRb.mmh [2]; in test [3]; with human PDGFRb.hFc [4]) was “no binding” in each case. The “% Maximum Blocking” value with hPDGFRb.mmh [8] was found to be 5%.

B3: H4H3098S (antibody, human IgG4, V domains shown)
VH: EVQLVESGGGVVQPGRSLRLSCAASGFTFSNYGMHWVRQAPGKGLEWVTVIWYDGSYKYYADSVKGRFTISRDNSKNRLYLQMNSLRAEDTAVYYCARGELGDAFDIWGQGTMVTVSS
VL: DIQMTQSPSTLSASVGDRLTITCRASQSISTWLAWYQQKPGKAPTLLIYKASSLESGVPSRFSGSGSGTDFTLTISSLQPDDFATYYCQQYKTSWTFGQGTKLEIKR
notes: human IgG4 Fc (H4H prefix)
Turning to B3, the “IC50, blocking PDGF-BB” value in test [1] worked out at 1.2e-09 M. Moreover, the “IC50, blocking PDGF-DD” value in test [1] was found to be 1.1e-09 M. Besides, the Kd is 1.54 nM in the test with hPDGFRb.mmh [2]; 68.9 nM in test [3]; 0.219 nM with human PDGFRb.hFc [4]; 2.34 nM with hPDGFRb.mmh [5]; 95.6 nM in test [6]; 0.206 nM with human PDGFRb.hFc [7]. Moreover, the koff with hPDGFRb.mmh [2] stood at 0.000596 s⁻¹; in test [3], 0.0094 s⁻¹; with human PDGFRb.hFc [4] it was 6.22e-05 s⁻¹; with hPDGFRb.mmh [5], 0.00171 s⁻¹; in test [6], 0.0267 s⁻¹; in the test with human PDGFRb.hFc [7] it was 7.66e-05 s⁻¹. For the same molecule, the kon in the test with hPDGFRb.mmh [2] stood at 386000 M⁻¹ s⁻¹; in test [3], 136000 M⁻¹ s⁻¹; with human PDGFRb.hFc [4] it was 280000 M⁻¹ s⁻¹; in the test with hPDGFRb.mmh [5], 733000 M⁻¹ s⁻¹; in test [6], 280000 M⁻¹ s⁻¹; with human PDGFRb.hFc [7], 374000 M⁻¹ s⁻¹. In addition, the t1/2 with hPDGFRb.mmh [2] was found to be 19 min; in test [3], 1.2 min; with human PDGFRb.hFc [4], 186 min; with hPDGFRb.mmh [5], 7 min; in test [6], 0.4 min; in the test with human PDGFRb.hFc [7], 151 min. Besides, the “% Maximum Blocking” value in the test with hPDGFRb.mmh [8] is -13%.

B4: H4H3104S (antibody, human IgG4, V domains shown)
VH: QVQLVESGGGLVQPGGSLRLSCAAAGFTFSHYWMSWVRQAPGKGLEWVATIKKDGSERYYVDSVKGRFTISRDNARNSMYLEMNSLRTEDTAIYYCARDIVTPNTDYYFGMDVWGQGTTVTVSS
VL: DIQLTQSPSTLSASVGDRVTITCRASQSFNNWLSWYQQKPGKAPKLLIYMASTLESGVPSRFSGSGSGTDFTLTINSLQPDDFATYYCQQSNSYSRTFGHGTKVEIK
notes: human IgG4 Fc (H4H prefix)
Consider B4, for which, in test [1], the “IC50, blocking PDGF-BB” value was found to be 5e-10 M and the “IC50, blocking PDGF-DD” value was 3.3e-10 M. Besides, in the test with hPDGFRb.mmh [2], the affinity, expressed as Kd, was 1.61 nM; the koff amounted to 0.000688 s⁻¹; the kon turned out to be 428000 M⁻¹ s⁻¹; the t1/2 came out at 17 min. In test [3], this molecule returned an equilibrium dissociation constant (Kd) of 0.909 nM, a koff of 0.000714 s⁻¹, a kon of 786000 M⁻¹ s⁻¹ and a t1/2 of 16 min. In the test with human PDGFRb.hFc [4], this molecule came in with a Kd of 0.304 nM, a koff of 0.000146 s⁻¹, a kon of 480000 M⁻¹ s⁻¹ and a t1/2 of 79 min. Further, in the test with hPDGFRb.mmh [5], the Kd was found to be 3.37 nM, the koff was found to be 0.0028 s⁻¹, the kon stood at 833000 M⁻¹ s⁻¹ and the t1/2 amounted to 4 min. Moreover, in test [6], binding was characterised by a dissociation constant (Kd) of 4.05 nM, the koff stood at 0.00299 s⁻¹, the kon is 740000 M⁻¹ s⁻¹ and the t1/2 worked out at 4 min. In the test with human PDGFRb.hFc [7], this molecule registered a Kd of 0.606 nM, a koff of 0.000567 s⁻¹, a kon of 936000 M⁻¹ s⁻¹ and a t1/2 of 20 min. Also, in the test with hPDGFRb.mmh [8], the “% Maximum Blocking” value was 89% and 0.38 nM corresponded to half-maximal inhibition (IC50).

B5: H4H3096S (antibody, human IgG4, V domains shown)
VH: EVQLVQSGGSLVQPGGSLRLSCTASGFTFSSYWMSWVRQAPGKGLEWVANIQQDESEKYYVDSVKGRFSISRDNAKKSLYLQMNSLRAEDTAVYFCARDLVPPRQGDYYHYFGMDVWGQGTLVTVSS
VL: AIRMTQSPSTLSASVGDRVTITCRASQSISDWLAWYQQKPGKAPNLLIYKASSLESGVPSRFSGSGSGTEFTLTISGLQPDDFATYYCQQYNSYSRTFGQGTKLEIKR
notes: human IgG4 Fc (H4H prefix)
For the molecule B5, the “IC50, blocking PDGF-BB” value in test [1] turned out to be 4.5e-10 M. In test [1], the “IC50, blocking PDGF-DD” value turned out to be 5.8e-10 M. Besides, the Kd with hPDGFRb.mmh [2] turned out to be 3.68 nM; in test [3] it was 6.39 nM; with human PDGFRb.hFc [4], 1.17 nM; with hPDGFRb.mmh [5], 13.8 nM; in test [6], 31.6 nM; with human PDGFRb.hFc [7] it was 3.1 nM. For the same molecule, the koff was determined as 0.00104 s⁻¹ with hPDGFRb.mmh [2]; 0.00117 s⁻¹ in test [3]; 0.00026 s⁻¹ in the test with human PDGFRb.hFc [4]; 0.00624 s⁻¹ in the test with hPDGFRb.mmh [5]; 0.00512 s⁻¹ in test [6]; 0.000793 s⁻¹ with human PDGFRb.hFc [7]. Moreover, the kon with hPDGFRb.mmh [2] is 281000 M⁻¹ s⁻¹; in test [3], 182000 M⁻¹ s⁻¹; in the test with human PDGFRb.hFc [4], 222000 M⁻¹ s⁻¹; with hPDGFRb.mmh [5], 452000 M⁻¹ s⁻¹; in test [6], 162000 M⁻¹ s⁻¹; with human PDGFRb.hFc [7], 250000 M⁻¹ s⁻¹. In addition, the t1/2 with hPDGFRb.mmh [2] is 11 min; in test [3], 10 min; with human PDGFRb.hFc [4] it was 44 min; with hPDGFRb.mmh [5], 2 min; in test [6], 2 min; with human PDGFRb.hFc [7], 15 min. The “% Maximum Blocking” value in the test with hPDGFRb.mmh [8] stood at 84%. This molecule came in with an IC50 with hPDGFRb.mmh [8] of 0.18 nM.
